In US20230132049A1 (Genmab, published 2023):
Like-named read-outs stand apart in the source and are kept apart here.

B1: bsG1-huCD3-FEAL×CD30-hAC10-FEAR (bispecific antibody, human IgG1, kappa, lambda)
heavy 1: not shown
light 1: not shown
heavy 2: QVQLVQSGAEVKKPGASVKVSCKASGYTFTDYYITWVRQAPGQGLEWMGWIYPGSGNTKYNEKFKGRVTMTRDTSISTAYMELSRLRSDDTAVYYCANYGNYWFAYWGQGTLVTVSSASTKGPSVFPLAPSSKSTSGGTAALGCLVKDYFPEPVTVSWNSGALTSGVHTFPAVLQSSGLYSLSSVVTVPSSSLGTQTYICNVNHKPSNTKVDKRVEPKSCDKTHTCPPCPAPEFEGGPSVFLFPPKPKDTLMISRTPEVTCVVVAVSHEDPEVKFNWYVDGVEVHNAKTKPREEQYNSTYRVVSVLTVLHQDWLNGKEYKCKVSNKALPAPIEKTISKAKGQPREPQVYTLPPSREEMTKNQVSLTCLVKGFYPSDIAVEWESNGQPENNYKTTPPVLDSDGSFFLYSRLTVDKSRWQQGNVFSCSVMHEALHNHYTQKSLSLSPG
light 2: not shown
notes: Bispecific IgG1 by Fab-arm exchange of the two parental antibodies
B2: IgG1-CD30-T408-FEAR (antibody, V domains shown)
VH: QVQLQQPGAELVRPGASVKLSCKASGYTFTSYWINWVKQRPGQGLEWIGNIYPSDSYSNYNQKFKDKATLTVDKSSSTAYMQLSSPTSEDSAVYYCTLGSYWGQGTLVTVSA
VL: not shown
notes: Monospecific, bivalent parental antibody
B3: bsG1-huCD3-FEAL×CD30-T215-FEAR (bispecific antibody, human IgG1, kappa, lambda)
heavy 1: not shown
light 1: not shown
heavy 2: not shown
light 2: DIVMTQSQKFMSTSVGDRVSVTCKASQNVFTNVAWYQQKLGQSPKPLIYSASYRYSGVPDRFTGSGSGTDFTLTISDVQSEDLAEYFCQQYNSYPVTFGAGTKLELKRTVAAPSVFIFPPSDEQLKSGTASVVCLLNNFYPREAKVQWKVDNALQSGNSQESVTEQDSKDSTYSLSSTLTLSKADYEKHKVYACEVTHQGLSSPVTKSFNRGEC
notes: Bispecific IgG1 by Fab-arm exchange of the two parental antibodies; also called bsIgG1-huCD3-FEAL×CD30-T215-FEAR
B4: bsG1-huCD3-FEAL×CD30-HRS-3-FEAR (bispecific antibody, human IgG1, kappa, lambda)
heavy 1: not shown
light 1: not shown
heavy 2: QVQLQQSGAELARPGASVKMSCKASGYTFTTYTIHWVRQRPGHDLEWIGYINPSSGYSDYNQNFKGKTTLTADKSSNTAYMQLNSLTSEDSAVYYCARRADYGNYEYTWFAYWGQGTTVTVSSASTKGPSVFPLAPSSKSTSGGTAALGCLVKDYFPEPVTVSWNSGALTSGVHTFPAVLQSSGLYSLSSVVTVPSSSLGTQTYICNVNHKPSNTKVDKRVEPKSCDKTHTCPPCPAPEFEGGPSVFLFPPKPKDTLMISRTPEVTCVVVAVSHEDPEVKFNWYVDGVEVHNAKTKPREEQYNSTYRVVSVLTVLHQDWLNGKEYKCKVSNKALPAPIEKTISKAKGQPREPQVYTLPPSREEMTKNQVSLTCLVKGFYPSDIAVEWESNGQPENNYKTTPPVLDSDGSFFLYSRLTVDKSRWQQGNVFSCSVMHEALHNHYTQKSLSLSPG
light 2: DIVMTQSPKFMSTSVGDRVTVTCKASQNVGTNVAWFQQKPGQSPKVLIYSASYRYSGVPDRFTGSGSGTDFTLTISNVQSEDLAEYFCQQYHTYPLTFGGGTKLEINRTVAAPSVFIFPPSDEQLKSGTASVVCLLNNFYPREAKVQWKVDNALQSGNSQESVTEQDSKDSTYSLSSTLTLSKADYEKHKVYACEVTHQGLSSPVTKSFNRGEC
B5: bsG1-huCD3-FEAL×CD30-T105-FEAR (bispecific antibody, human IgG1, kappa, lambda)
heavy 1: not shown
light 1: not shown
heavy 2: not shown
light 2: DIVMTQSQKFMSTSVGDRVSVTCKASQNVNTNVAWYQQKPGQSPEALIYSASYRYSGVPDRFTGSGSGTDFTLTISNVQSEDLAEYFCQQYNSYPLTFGSGTKLEIKRTVAAPSVFIFPPSDEQLKSGTASVVCLLNNFYPREAKVQWKVDNALQSGNSQESVTEQDSKDSTYSLSSTLTLSKADYEKHKVYACEVTHQGLSSPVTKSFNRGEC
notes: Bispecific IgG1 by Fab-arm exchange of the two parental antibodies; also called bsIgG1-huCD3-FEAL×CD30-T105-FEAR
B6: IgG1-CD30-T215-FEAR (antibody, V domains shown)
VH: QVTLKESGPGILQPSQTLSLTCSFSGFSLSVSGMGVSWIRQPSGKGLEWLAHIHWDDDRRSNPSLRSRLTISKDTSNNQVFLKITSVDTADTATYYCARRPDLYGNYFFFDFWGQGTTLTVSS
VL: DIVMTQSQKFMSTSVGDRVSVTCKASQNVFTNVAWYQQKLGQSPKPLIYSASYRYSGVPDRFTGSGSGTDFTLTISDVQSEDLAEYFCQQYNSYPVTFGAGTKLELKR
notes: as for B2
B7: bsG1-huCD3-FEAL×CD30-MDX060-FEAR (bispecific antibody, human IgG1, kappa, lambda)
heavy 1: not shown
light 1: not shown
heavy 2: QVQLQQWGAGLLKPSETLSLTCAVYGGSFSAYYWSWIRQPPGKGLEWIGDINHGGGTNYNPSLKSRVTISVDTSKNQFSLKLNSVTAADTAVYYCASLTAYWGQGSLVTVSSASTKGPSVFPLAPSSKSTSGGTAALGCLVKDYFPEPVTVSWNSGALTSGVHTFPAVLQSSGLYSLSSVVTVPSSSLGTQTYICNVNHKPSNTKVDKRVEPKSCDKTHTCPPCPAPEFEGGPSVFLFPPKPKDTLMISRTPEVTCVVVAVSHEDPEVKFNWYVDGVEVHNAKTKPREEQYNSTYRVVSVLTVLHQDWLNGKEYKCKVSNKALPAPIEKTISKAKGQPREPQVYTLPPSREEMTKNQVSLTCLVKGFYPSDIAVEWESNGQPENNYKTTPPVLDSDGSFFLYSRLTVDKSRWQQGNVFSCSVMHEALHNHYTQKSLSLSPG
light 2: DIQMTQSPTSLSASVGDRVTITCRASQGISSWLTWYQQKPEKAPKSLIYAASSLQSGVPSRFSGSGSGTDFTLTISSLQPEDFATYYCQQYDSYPITFGQGTRLEIKRTVAAPSVFIFPPSDEQLKSGTASVVCLLNNFYPREAKVQWKVDNALQSGNSQESVTEQDSKDSTYSLSSTLTLSKADYEKHKVYACEVTHQGLSSPVTKSFNRGEC
notes: also called bsG1-huCD3xCD30-MDX060
B8: bsG1-huCD3-FEAL×CD30-T408-FEAR (bispecific antibody, human IgG1, kappa, lambda)
heavy 1: not shown
light 1: not shown
heavy 2: QVQLQQPGAELVRPGASVKLSCKASGYTFTSYWINWVKQRPGQGLEWIGNIYPSDSYSNYNQKFKDKATLTVDKSSSTAYMQLSSPTSEDSAVYYCTLGSYWGQGTLVTVSAASTKGPSVFPLAPSSKSTSGGTAALGCLVKDYFPEPVTVSWNSGALTSGVHTFPAVLQSSGLYSLSSVVTVPSSSLGTQTYICNVNHKPSNTKVDKRVEPKSCDKTHTCPPCPAPEFEGGPSVFLFPPKPKDTLMISRTPEVTCVVVAVSHEDPEVKFNWYVDGVEVHNAKTKPREEQYNSTYRVVSVLTVLHQDWLNGKEYKCKVSNKALPAPIEKTISKAKGQPREPQVYTLPPSREEMTKNQVSLTCLVKGFYPSDIAVEWESNGQPENNYKTTPPVLDSDGSFFLYSRLTVDKSRWQQGNVFSCSVMHEALHNHYTQKSLSLSPG
light 2: DVVMTQTPLTLSVTIGQPASISCKSSQSLSDSDGKTYLNWLLQRPGQSPKRLIYLVSKLDSGVPDRFTGSGSGTDFTLKISRVEAEDLGVYYCWQGAHFPRTFGGGTKLEIKRTVAAPSVFIFPPSDEQLKSGTASVVCLLNNFYPREAKVQWKVDNALQSGNSQESVTEQDSKDSTYSLSSTLTLSKADYEKHKVYACEVTHQGLSSPVTKSFNRGEC
notes: Bispecific IgG1 by Fab-arm exchange of the two parental antibodies; also called bsIgG1-huCD3-FEAL×CD30-T408-FEAR; BisIgG1-huCD3-FEAL×CD30-T408-FEAR

How the values were obtained:
human CD30 [1] = biological target: T1, human CD30 (human, UniProt P28908 19-595); test: flow cytometry on Expi293F cells transfected with human CD30
T1 construct: Endogenous on HL, ALCL and NHL tumor cell lines, or full-length huCD30 (Uniprot P28908) transiently expressed in Expi293F or HEK293 cells; also called huCD30; TNFRSF8
T1 sequence: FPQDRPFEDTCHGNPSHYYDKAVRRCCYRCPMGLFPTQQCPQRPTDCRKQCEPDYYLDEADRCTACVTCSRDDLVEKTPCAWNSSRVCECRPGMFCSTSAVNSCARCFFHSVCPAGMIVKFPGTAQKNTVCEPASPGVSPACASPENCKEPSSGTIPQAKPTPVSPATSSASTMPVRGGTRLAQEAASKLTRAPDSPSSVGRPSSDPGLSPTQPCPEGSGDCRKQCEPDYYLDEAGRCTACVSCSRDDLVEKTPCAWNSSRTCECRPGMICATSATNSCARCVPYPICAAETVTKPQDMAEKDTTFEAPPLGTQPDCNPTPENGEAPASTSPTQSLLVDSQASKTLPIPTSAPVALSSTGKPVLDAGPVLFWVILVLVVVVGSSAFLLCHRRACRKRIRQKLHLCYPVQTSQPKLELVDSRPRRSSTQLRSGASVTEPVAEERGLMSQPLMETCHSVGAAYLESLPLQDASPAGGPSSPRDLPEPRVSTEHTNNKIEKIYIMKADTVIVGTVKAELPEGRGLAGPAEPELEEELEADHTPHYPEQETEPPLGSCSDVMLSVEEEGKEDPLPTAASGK
Procedure: (§1) Cells (3×10⁴ cells/well) were incubated in polystyrene 96-well round-bottom plates (Thermo Scientific, cat. no. 163320) with serial dilutions of antibodies (ranging from 0.0002 to 50 μg/mL in 4-fold dilution steps) in 50 μL staining buffer at 4° C. for 30 min. Experiments were performed in technical duplicate. After washing twice in staining buffer, cells were incubated in 50 μL secondary antibody at 4° C. for 30 min. […] Cells were washed twice in staining buffer, resuspended in 30 μL staining buffer containing 0.4% EDTA and the ToPro-3 viability marker (Invitrogen, cat. no. T3605) diluted 1:10,000. Cells were analyzed on an iQue Screener (Intellicyt Corporation, USA). Binding curves were analyzed using non-linear regression (sigmoidal dose-response with variable slope) using GraphPad Prism V9.0.0 software (GraphPad Software, San Diego, Calif., USA).

[2] = biological target: T2, rhesus monkey (Macaca mulatta) CD30 (rhesus monkey, UniProt P28908 19-595 (human entry)); test: flow cytometry on Expi293F cells transfected with rhesus monkey CD30
T2 construct: Full-length construct expressed in Expi293F cells; also called mmCD30
T2 chain: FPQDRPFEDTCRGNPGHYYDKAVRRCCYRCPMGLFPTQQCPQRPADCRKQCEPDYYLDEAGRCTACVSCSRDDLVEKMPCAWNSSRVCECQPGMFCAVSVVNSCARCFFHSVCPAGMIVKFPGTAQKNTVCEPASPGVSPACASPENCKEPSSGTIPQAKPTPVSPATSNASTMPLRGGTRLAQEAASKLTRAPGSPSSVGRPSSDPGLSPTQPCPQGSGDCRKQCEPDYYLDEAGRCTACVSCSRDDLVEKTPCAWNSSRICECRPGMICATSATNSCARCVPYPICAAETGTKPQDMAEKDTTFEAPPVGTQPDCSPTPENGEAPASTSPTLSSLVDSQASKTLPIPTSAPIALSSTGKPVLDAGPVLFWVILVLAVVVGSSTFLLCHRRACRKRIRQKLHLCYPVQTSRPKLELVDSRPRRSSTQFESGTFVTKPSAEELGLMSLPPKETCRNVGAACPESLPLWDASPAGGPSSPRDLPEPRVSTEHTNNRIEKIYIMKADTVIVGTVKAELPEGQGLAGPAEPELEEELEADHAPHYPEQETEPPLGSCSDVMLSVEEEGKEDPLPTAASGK

human CD30 [3] = biological target: T1, human CD30; test: cell-based or functional assay
human CD30 [4] = biological target: T1, human CD30; test: flow cytometry on SU-DHL-1 cells
Procedure: Binding of CD3×CD30 bispecific antibodies to two CD30-expressing human tumor cell lines SU-DHL-1 (ALCL; ATCC, cat. no. ACC 356) and HDLM-2 (HL; ATCC, cat. no. CRL-2965) was analyzed by flow cytometry.
Cells (3×10⁴ cells/well) were incubated in polystyrene 96-well round-bottom plates (Greiner bio-one, cat. no. 650180) with serial dilutions of antibodies (range 0.0046 to 10 μg/mL in 3-fold dilution steps) in 50 μL staining buffer at 4° C. for 30 min. After washing twice in staining buffer, cells were incubated with 50 μL secondary antibody at 4° C. for 30 min. […] Next, cells were washed twice in staining buffer, resuspended in 100 μL staining buffer supplemented with TO-PRO-3 iodide (Thermo Fisher Scientific; cat. no. T3605; 1:8000 dilution) and analyzed on a FACSCelesta flow cytometer (BD Biosciences, USA). Live cells were gated based on FSC/SSC and absence of TOPRO-3 staining. Binding curves were analyzed by non-linear regression of log-transformed data (sigmoidal dose-response with variable slope, four parameters) using GraphPad Prism V7.02 software (GraphPad Software, San Diego, Calif., USA).

[5] = biological target: T2, rhesus monkey (Macaca mulatta) CD30; test: flow cytometry on Expi293F cells transfected with rhesus monkey CD30
Procedure: as §1

| Binder | EC50 (read off the curve) (human CD30 [1]) [µg/mL] | binding result [2] | cytotoxicity IC50 (µg/mL) average, Karpas-299 cells (human CD30 [3]) [µg/mL] | cytotoxicity maximum lysis (%) average, Karpas-299 cells (human CD30 [3]) [%] | EC50 (read off the curve) (human CD30 [4]) [µg/mL] | binding result [5] |
| --- | --- | --- | --- | --- | --- | --- |
| B1 | ~0.06 | binds | 0.032 | 37.8 | – | – |
| B2 | – | – | – | – | ~0.7 | – |
| B3 | – | – | 0.077 | 42.8 | – | binds |
| B4 | – | – | 0.068 | 47.5 | – | – |
| B5 | ~0.2 | – | 0.042 | 52.6 | – | – |
| B6 | – | – | – | – | – | binds |
| B7 | ~0.1 | – | 0.033 | 53.7 | – | – |
| B8 | – | – | 0.226 | 41.3 | – | binds |
